Patent US20150079090A1 (JOSAI UNIVERSITY, published 2015)
Ends that are not written are not given here.

Target: T1, conjugate of a peptide consisting of an amino acid sequence represented by SEQ ID NO:1 (SSVLYGGPPSAA) and KLH (also: conjugated to KLH with glutaraldehyde, site and number per carrier not given here)
T1 construct: Synthetic peptide (Fmoc solid phase) cross-linked to KLH by glutaraldehyde; also called antigenic substance; antigen
T1 peptide: SSVLYGGPPSAA
Assay: ELISA of hybridoma culture supernatant on plate coated with the peptide-KLH conjugate, fluorescence read-out
Method: A buffer solution containing the above-mentioned antigenic substance (5 mg) (Baicarbonate buffer: 100 mM NaHCO₃—NaOH, pH 9.2 to 9.5, the concentration of the peptide: 1 μg/mL) was added to a 96 well flat bottom plate in an amount of 50 μL per well, and allowed to stand for coating at room temperature for 2 hours. The plate was washed 3 times with wash buffer (PBST), and then blocking buffer (3% skim milk 1% BSA, PBS) was added in an amount of 200 to 250 μL/well to react at 4° C. for one full day, and then washed 3 times. Then the culture supernatant of hybridoma was added in an amount of 100 μL/well, which was allowed to react at 37° C. for 4 hours or at 4° C. for one full day. After the plate was washed 3 times, biotin-labeled anti-mouse IgG (SIGMA) diluted 10000 times with dilution buffer (10 mM Tris-HCl (pH 8.0), 0.9% (W/V) NaCl, 0.05% (W/V) Tween 20) was added in an amount of 50 μL/well, which was allowed to react at room temperature for 2 hours. […] Then washing was performed 6 times, and fluorescent substrate buffer (Attophos substrate buffer, Roche Diagnostics K.K.) was added in an amount of 50 μL/well, and the plate was shaded to allow fluorescence to develop. Fluorescence intensity was measured in CytoFluorII (PerSeptive Biosystems).

binding result: binds
B1: monoclonal antibody (SSVmAb) of Example 1, produced by hybridoma Mouse-Mouse hybridoma SSV-C 93-3 (NITE BP-972) (antibody, IgG1, V domains shown)
VH: EIQLQQSGAELVKPGASVKISCKASGYSFTGYNMNWVKQSHGKSLEWIGNINPYYGSTSYNQKFKGKATLTVDKSSSTAYMQLNSLTSEDSAVYYCARSPYYSNYWRYFDYWGQGTTLTVSS
VL: QIVLSQSPAILSASPGEKVTMTCRASSSVSYMHWYQQKPGSSPKPWIYATSNLASGVPARFSGSGSGTSYSLTISRVEAEDAATYYCQQWSSNPWTFGGGTKLEIK
notes: Mouse hybridoma antibody
